Reference: PMC8568140, “Assembly of infectious Kaposi’s sarcoma-associated herpesvirus progeny requires formation of a pORF19 pentamer” (PLoS Biology, 2021)

What was measured:
[1] = molecular target: Baculovirus-produced KSHV capsids lacking the portal protein pORF43, Q2HRA7;Q2HRB6; test: western blot of gradient-purified capsids (capsid assembly assay in insect cells), band intensity quantified; conditions: 3 independent biological replicates; capsid loading normalized to pORF25-V5 and pORF26; parent: est. 100; read off a plot
[2] = molecular target: the molecule itself; test: crystal structure; hanging drop, 18°C, 0.1 M HEPES pH 7.5, 1.69 M lithium acetate (native, P212121, 2.6 Å); selenomethionine derivative in 0.1 M MES pH 7.4, 2 M lithium acetate (P21, P6322)
[3] = molecular target: the molecule itself; test: AUC; sedimentation velocity, 40,000 rpm, 20°C, LiAc buffer with 50 mM HEPES pH 7.5 and 0.5 M lithium acetate; interface mutants at 127 μM, oxidized pORF19_(KCTD)CC at 11 μM

Row | Molecule | percent of parent (% of wt pORF19) [1] | further results
1 | GFP-tagged wt pORF19 (ORF19-GFP) of KSHV D173A; Q177A | 93 | –
2 | GFP-tagged wt pORF19 (ORF19-GFP) of KSHV V463W; L465Y | 91 | –
3 | GFP-tagged wt pORF19 (ORF19-GFP) of KSHV loop (156MNQNQ160 replaced by a flexible linker) | 92 | –
4 | KSHV pORF19 carboxyl-terminal domain (pORF19_(KCTD)) (domain or fragment, The His tag was removed with carboxypeptidase after a first SEC; Two of the three crystal forms (P21, P6322) were of a selenomethionine derivative; also called wt pORF19_(KCTD); KSHV pORF19 CTD; source: E. coli Rosetta (DE3), purified (HisTrap, SEC); not shown: His tag, C-terminal, cleaved) ASHRNFTVAIVPGDPHFSVDRDLRGELMPTLYMNQNQWLPSFGPWFISLTDNAMQRRVFPKELKGTVNFQNSTSLKLISHTLTTVASTTADFFADARHLTDTQAALCLVNAYFCQKTSRQLPATPDDLLADLPQKLDLLITQLKQESGPGDFSFTYSNPQERASLAPLNKESRYPTAFFQRHKLHAMMAKAGLFPHNKGTGAPGTAPAMDLVFAITSAMFGSDIPPFSAYQWNLRAGIVALEVFILAYGLLEFGQVARGHPNRRLNLVSLLGPKFQPGALPDPNAPMLKRGQLFSFISEHYIIPTLQANPNAPVSFIFPGIILAALEARSTVSHKQPGPFVNLTGSRFNEIFEILNQQLTFRDPLALLQARTALRLATEEGLDVLLSHPSPPTLLQEIIKSQFGGGDDYDRAYFMVLGCLPVVLAVV | – | stoichiometry N [2]: 5
5 | oxidized pORF19_(KCTD)CC (KSHV pORF19 CTD with P137C and P461C) (domain or fragment, engineered inter-protomeric disulfide bond between the cysteines introduced at 137 and 461 (oxidized form), pORF19 of Kaposi's sarcoma-associated herpesvirus, residues 123 to 549, with two prolines changed to cysteines; The protomers of the oxidized form are covalently linked by the engineered disulfide bond; also called pentameric pORF19KCTDCC; source: E. coli Rosetta (DE3), purified as pORF19_(KCTD); oxidized with 2 mM GSSG in 0.5 M lithium acetate, then SEC (Superose 6 Increase); not shown: His tag, …) ASHRNFTVAIVPGDCHFSVDRDLRGELMPTLYMNQNQWLPSFGPWFISLTDNAMQRRVFPKELKGTVNFQNSTSLKLISHTLTTVASTTADFFADARHLTDTQAALCLVNAYFCQKTSRQLPATPDDLLADLPQKLDLLITQLKQESGPGDFSFTYSNPQERASLAPLNKESRYPTAFFQRHKLHAMMAKAGLFPHNKGTGAPGTAPAMDLVFAITSAMFGSDIPPFSAYQWNLRAGIVALEVFILAYGLLEFGQVARGHPNRRLNLVSLLGPKFQPGALPDPNAPMLKRGQLFSFISEHYIIPTLQANPNAPVSFIFPGIILAALEARSTVSHKQPGCFVNLTGSRFNEIFEILNQQLTFRDPLALLQARTALRLATEEGLDVLLSHPSPPTLLQEIIKSQFGGGDDYDRAYFMVLGCLPVVLAVV | – | stoichiometry N [3]: 5
